# Patent US20250109201A1 (AGENUS, published 2025)
# Positions count from the first letter of the chain named.
# B1: BA217 (antibody, human IgG2, kappa)
# heavy: QVQLVQSGAEVKKPGASVKVSCKASGYTFNRYYMHWVRQAPGQGLEWMGWINPYTGGTNYAQKFQGRVTMTRDTSISTAYMELSRLRSDDTAVYYCASKQPSSDYWGQGTLVTVSSASTKGPSVFPLAPCSRSTSESTAALGCLVKDYFPEPVTVSWNSGALTSGVHTFPAVLQSSGLYSLSSVVTVPSSNFGTQTYTCNVDHKPSNTKVDKTVERKCCVECPPCPAPPVAGPSVFLFPPKPKDTLMISRTPEVTCVVVDVSHEDPEVQFNWYVDGVEVHNAKTKPREEQFNSTFRVVSVLTVVHQDWLNGKEYKCKVSNKGLPAPIEKTISKTKGQPREPQVYTLPPSREEMTKNQVSLTCLVKGFYPSDIAVEWESNGQPENNYKTTPPMLDSDGSFFLYSKLTVDKSRWQQGNVFSCSVMHEALHNHYTQKSLSLSPGK
# light: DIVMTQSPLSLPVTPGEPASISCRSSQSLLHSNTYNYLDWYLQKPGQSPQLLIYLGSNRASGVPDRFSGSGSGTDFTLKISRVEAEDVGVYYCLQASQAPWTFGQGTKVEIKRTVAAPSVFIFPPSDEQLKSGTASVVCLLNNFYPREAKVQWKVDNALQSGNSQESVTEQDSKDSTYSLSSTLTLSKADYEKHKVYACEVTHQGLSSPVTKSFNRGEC
# B2: BA218 (antibody, human IgG2, kappa)
# heavy: B1 heavy
# light: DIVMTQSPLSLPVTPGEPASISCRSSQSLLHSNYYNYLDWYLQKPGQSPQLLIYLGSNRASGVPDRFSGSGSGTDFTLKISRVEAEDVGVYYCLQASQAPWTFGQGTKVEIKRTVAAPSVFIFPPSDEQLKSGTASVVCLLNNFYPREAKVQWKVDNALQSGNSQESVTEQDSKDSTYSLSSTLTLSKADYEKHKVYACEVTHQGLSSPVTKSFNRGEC
# B3: BA220 (antibody, human IgG2, kappa)
# heavy: B1 heavy with C130S
# light: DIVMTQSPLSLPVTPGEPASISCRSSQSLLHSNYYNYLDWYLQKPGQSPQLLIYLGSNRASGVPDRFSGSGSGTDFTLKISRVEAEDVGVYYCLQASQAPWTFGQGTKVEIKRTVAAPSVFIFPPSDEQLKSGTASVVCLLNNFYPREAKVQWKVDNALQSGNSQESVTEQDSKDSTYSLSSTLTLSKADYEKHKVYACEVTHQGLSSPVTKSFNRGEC
# B4: BA246 (antibody, human IgG2, kappa)
# heavy: B1 heavy
# light: not shown
# B5: BA247 (antibody, human IgG2, kappa)
# heavy: B1 heavy with C130S
# light: not shown
# B6: BA219 (antibody, human IgG2, kappa)
# heavy: B1 heavy with C130S
# light: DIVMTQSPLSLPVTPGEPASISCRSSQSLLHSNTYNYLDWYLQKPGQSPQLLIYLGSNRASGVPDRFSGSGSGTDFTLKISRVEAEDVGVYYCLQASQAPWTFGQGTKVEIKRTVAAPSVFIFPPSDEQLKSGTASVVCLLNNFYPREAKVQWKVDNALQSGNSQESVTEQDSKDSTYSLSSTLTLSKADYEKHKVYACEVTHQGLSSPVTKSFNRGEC
# B7: BA212 (antibody, human IgG1, kappa, N297A, V domains shown)
# VH: QVQLVQSGAEVKKPGASVKVSCKASGYTFNRYYMHWVRQAPGQGLEWMGWINPYTGGTNYAQKFQGRVTMTRDTSISTAYMELSRLRSDDTAVYYCASKQPSSDYWGQGTLVTVSS
# VL: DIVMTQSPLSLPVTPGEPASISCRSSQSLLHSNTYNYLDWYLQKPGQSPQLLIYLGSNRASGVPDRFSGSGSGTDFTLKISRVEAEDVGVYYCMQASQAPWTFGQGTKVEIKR
# B8: BA213 (antibody, human IgG1, kappa, N297A, V domains shown)
# VH: B7 VH
# VL: not shown
# B9: BA216 (antibody, human IgG1, kappa, N297A, V domains shown)
# VH: B7 VH
# VL: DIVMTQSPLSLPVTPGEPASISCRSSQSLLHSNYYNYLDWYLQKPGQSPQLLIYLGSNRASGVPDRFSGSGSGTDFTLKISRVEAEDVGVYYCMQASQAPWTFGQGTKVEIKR
# Biological target: T1, ECD-His tagged human ILT2 haplotype PE01 (human, UniProt Q8NHL6 24-458)
# T1 construct: also called Human ILT2 PE01 ECD; LILRB1/ILT2 PE01; not shown: His tag
# T1 sequence (Q8NHL6 24-458): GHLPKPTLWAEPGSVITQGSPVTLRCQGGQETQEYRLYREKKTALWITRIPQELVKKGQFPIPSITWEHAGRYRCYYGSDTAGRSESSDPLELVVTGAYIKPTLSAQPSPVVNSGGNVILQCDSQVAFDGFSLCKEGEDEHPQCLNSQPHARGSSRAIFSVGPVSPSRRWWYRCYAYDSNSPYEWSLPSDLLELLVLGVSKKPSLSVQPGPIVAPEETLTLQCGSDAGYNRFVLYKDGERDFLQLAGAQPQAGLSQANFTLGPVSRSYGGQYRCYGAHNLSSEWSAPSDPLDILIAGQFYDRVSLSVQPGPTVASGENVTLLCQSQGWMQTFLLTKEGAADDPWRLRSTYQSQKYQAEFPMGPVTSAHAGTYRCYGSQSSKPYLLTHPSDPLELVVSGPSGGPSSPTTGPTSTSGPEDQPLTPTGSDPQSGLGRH
# Assay: SPR, ILT2 PE01 ECD-His, average of two measurements
# Description: (§1) Briefly, SPR experiments were performed using a Biacore T200 instrument, and the association rate (Kₐ), dissociation rate (Kd), and dissociation constant (KD) were calculated from each experiment using a 1:1 binding model with Biacore™ T200 Evaluation Software. Capture of antibodies from the Human Fab Capture kit (28958325, GE Healthcare) to the Series S CM5 sensor chip (29149603, GE Healthcare) was performed using the immobilization wizard for amine coupling from the Biacore™ control panel and following the manufacturer's recommendations included with the kit.
# Variants of irrelevant antibody VRC01 (with IgG1, IgG1 N297A, IgG4 S228P, IgG2, or IgG2 C127S constant regions) were used as negative isotype controls. The binding kinetics are shown in Table 5 as an average from two independent measurements.
Binder,Kd [nM],koff [s⁻¹],kon [M⁻¹ s⁻¹]
B1,0.17,5.4e-05,340000
B2,0.19,7e-05,390000
B3,0.14,5.7e-05,420000
B4,0.23,7.4e-05,330000
B5,0.31,9.7e-05,330000
B6,0.14,4.8e-05,350000

# Biological target: T2, human ILT2 extracellular and transmembrane domains expressed on CHO cells (human, UniProt Q8NHL6 24-482, limits assumed)
# T2 construct: domain: extracellular and transmembrane domains; which one is told under assay; also called CHO cells expressing human ILT2 (relatively low or relatively high level); CHO-ILT2 cells
# T2 sequence (Q8NHL6 24-482 limits assumed): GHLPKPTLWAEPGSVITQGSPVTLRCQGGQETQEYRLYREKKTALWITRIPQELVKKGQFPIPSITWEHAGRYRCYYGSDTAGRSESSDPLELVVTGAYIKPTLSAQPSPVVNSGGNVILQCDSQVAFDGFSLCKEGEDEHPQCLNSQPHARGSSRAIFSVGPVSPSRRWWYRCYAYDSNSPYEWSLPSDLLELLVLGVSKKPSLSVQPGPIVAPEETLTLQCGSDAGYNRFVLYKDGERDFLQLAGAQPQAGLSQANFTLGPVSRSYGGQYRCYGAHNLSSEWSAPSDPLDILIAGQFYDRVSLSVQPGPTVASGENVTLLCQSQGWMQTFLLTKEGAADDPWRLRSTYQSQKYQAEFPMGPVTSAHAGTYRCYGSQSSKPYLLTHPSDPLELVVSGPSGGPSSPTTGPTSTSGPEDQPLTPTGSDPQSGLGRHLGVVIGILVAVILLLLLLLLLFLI
# Assay: flow cytometry, CHO cells with high human ILT2
# Description: For the antibody binding assay, the cells were seeded in a 96-well U-bottom tissue culture plate at a density of 3×10⁵ cells per well in 25 μL of PBS supplemented with 0.5% BSA, 1 mM EDTA and 0.05% sodium azide (FACS Buffer). The cells were incubated for 30 minutes at 4° C. with […] of a series dilution of anti-ILT2 antibodies or isotype control at concentrations from 10 μg/mL to 2.4 ng/mL in FACS Buffer.
# After a 30-minute incubation in the dark at 4° C., the cells were washed twice with cold FACS Buffer, and the cells were analyzed by flow cytometry (BD LSR Fortessa Flow Cytometer). CHO-ILT2 cells were identified and MFI was calculated as above.
Binder,AUC,EC50 [µg/mL]
B1,264000,0.248
B2,295000,0.227
B3,305000,0.282
B6,307000,0.183

# Biological target: T2, human ILT2 extracellular and …
# Assay: flow cytometry, CHO cells with low human ILT2
# Description: For the antibody binding assay, the cells were seeded in a 96-well U-bottom tissue culture plate at a density of 3×10⁵ cells per well in 25 μL of PBS supplemented with 0.5% BSA, 1 mM EDTA and 0.05% sodium azide (FACS Buffer). The cells were incubated for 30 minutes at 4° C. with 25 μL of a series dilution of anti-ILT2 antibodies or isotype control, at final concentrations ranging from 10 μg/mL to 0.2 ng/mL in FACS Buffer.
# After a 30-minute incubation in the dark at 4° C., the cells were washed twice with cold FACS Buffer, and the cells were analyzed by flow cytometry (BD LSR Fortessa Flow Cytometer). CHO cells were identified using a plot of forward scatter-area (FSC-A) versus side scatter area (SSC-A) and another plot of FSC-A versus forward scatter-height (FSC-H) for selection of single cells. Samples were analyzed by sequentially gating on the single cell population and plotting histograms representing the fluorescence in the PE channel. For each sample, mean fluorescence intensity (MFI) was calculated, and the data were plotted by GraphPad Prism software.
Binder,AUC,EC50 [µg/mL]
B7,15100,0.087
B8,13600,0.175
B9,14400,0.078

# Biological target: T3, full-length ILT2 expressed on Jurkat cells (human, UniProt Q8NHL6 24-650)
# T3 construct: whole, on cells; The Jurkat line also carries FcgRIIIa and an NFAT-luciferase reporter (Promega/G7102); also called Jurkat cells expressing human ILT2; ILT2-expressing Jurkat reporter cells
# T3 sequence (Q8NHL6 24-650): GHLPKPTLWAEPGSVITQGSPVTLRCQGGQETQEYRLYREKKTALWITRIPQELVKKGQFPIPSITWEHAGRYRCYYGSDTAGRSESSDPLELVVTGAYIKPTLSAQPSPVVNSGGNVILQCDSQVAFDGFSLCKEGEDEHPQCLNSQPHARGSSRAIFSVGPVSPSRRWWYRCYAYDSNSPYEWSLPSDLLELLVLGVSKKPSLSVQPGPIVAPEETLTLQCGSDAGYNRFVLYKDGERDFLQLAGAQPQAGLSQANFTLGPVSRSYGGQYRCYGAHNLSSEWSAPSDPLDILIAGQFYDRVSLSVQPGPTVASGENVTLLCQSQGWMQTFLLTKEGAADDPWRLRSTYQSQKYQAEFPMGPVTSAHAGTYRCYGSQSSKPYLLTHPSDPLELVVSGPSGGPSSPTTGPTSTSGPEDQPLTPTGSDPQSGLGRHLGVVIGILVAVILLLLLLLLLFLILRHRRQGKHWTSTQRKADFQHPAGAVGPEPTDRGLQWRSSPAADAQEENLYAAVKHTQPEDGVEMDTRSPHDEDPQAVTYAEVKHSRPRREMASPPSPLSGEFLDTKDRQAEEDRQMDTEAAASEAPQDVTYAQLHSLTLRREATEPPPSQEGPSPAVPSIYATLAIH
# Assay: flow cytometry, Jurkat cells expressing human ILT2
Binder,AUC,EC50 [µg/mL]
B7,222000,0.057
B8,189000,0.11
B9,199000,0.07

# Biological target: T4, ECD-His tagged human ILT2 haplotype PE03 (human, UniProt Q8NHL6 24-458)
# T4 construct: also called Human ILT2 PE03 ECD (Sino biological, 16014-H08H); not shown: His tag
# T4 sequence (Q8NHL6 other isoform, or with tags, fused parts or gaps): as the sequence (Q8NHL6 24-458) above, with L45P, I119T, S132I counted along it
# Assay: SPR, captured antibody, ILT2 ECD-His analyte
# Description: (§2) The binding affinity of anti-ILT2 antibody variants with IgG1 N297A constant regions to ECD-His tagged human ILT2 haplotypes PE01, PE02, PE03 (see Table 1) was assessed by surface plasmon resonance (SPR).
# as §1
# (§3) Approximately 3 μg/mL of tested anti-ILT2 antibodies and controls diluted in a running buffer (10 mM HEPES, 150 mM NaCl, 3 mM EDTA, and 0.05% surfactant P20) were captured in individual flow cells of previously prepared anti Human Fab CM5 chip, keeping a single flow cell as a reference. Antibodies were captured using a 30 sec injection at a flow rate of 10 μL/min to reach about 150 resonance units (Rus). Human ILT2 ECD PE01 (diluted in the running buffer at the concentration of 30, 10, 3.3, 1.11, 0.37, 0.12 nM), and human ILT2 ECD PE02 and PE03 (diluted in the running buffer at the concentration of 33.3, 11.1, 3.7, 1.2, 0.41, 0.14 nM), were flowed over the chip surface at a flow rate of 30 μL/min with a 3-min association phase and a 10-min dissociation phase. The sensor chip was regenerated between cycles with a double 30-sec injection of 10 mM glycine, pH 2.1 at 30 μL/min followed by stabilization period of 60s. Sensorgrams were evaluated and fit to a simple Langmuir 1:1 interaction model using the global data analysis option of BIAevaluation 3.1 software. Data quality was verified by visually inspecting deviations and curve fitting, and by evaluating the parameters of Rₘₐₓ, Chi2, and Tc.
Binder,Kd [nM],koff [s⁻¹],kon [M⁻¹ s⁻¹]
B7,0.875,0.0004,460000
B8,0.149,7.5e-05,500000
B9,0.317,8.5e-05,270000

# Biological target: T5, ECD-His tagged human ILT2 haplotype PE02 (human, UniProt Q8NHL6 24-458)
# T5 construct: also called Human ILT2 PE02 ECD; not shown: His tag
# T5 sequence (Q8NHL6 other isoform, or with tags, fused parts or gaps): as the sequence (Q8NHL6 24-458) above, with L45P, A70T, I119T, S132I counted along it
# Assay: SPR, captured antibody, ILT2 ECD-His analyte
# Description: as §2, §1, §3
Binder,Kd [nM],koff [s⁻¹],kon [M⁻¹ s⁻¹]
B7,0.783,0.00021,270000
B8,0.63,0.00015,230000
B9,0.617,0.00014,230000

# Biological target: T1, ECD-His tagged human ILT2 haplotype PE01
# Assay: SPR, captured antibody, ILT2 ECD-His analyte
# Description: as §2, §1, §3
Binder,Kd [nM],koff [s⁻¹],kon [M⁻¹ s⁻¹]
B7,0.089,3.3e-06,37000
B8,0.033,1.1e-05,320000
B9,0.185,6.7e-05,360000
